Test results taken from patent CN105348390A (BEIJING WISDOMAB BOITECHNOLOGY CO LTD, dated 2016).
Changes are numbered by the printed parent chain. One block for each binder: values may come before it.

Columns and labels:
[1] = target: T1, 重组huPCSK9-his (人PCSK9, C端His-tag) (human, UniProt Q8NBP7 54-692); experiment: SPR, Biacore 3000, antibody captured by anti-human Fc on CM5, huPCSK9 as analyte
T1 construct: Expressed in HEK293 cells; not shown: C-terminal His-tag

[2] = target: T1, 重组huPCSK9-his (人PCSK9, C端His-tag); experiment: solid-phase panning of scFv phage library on huPCSK9-his

T1 sequence (Q8NBP7 other isoform, or with tags, fused parts or gaps): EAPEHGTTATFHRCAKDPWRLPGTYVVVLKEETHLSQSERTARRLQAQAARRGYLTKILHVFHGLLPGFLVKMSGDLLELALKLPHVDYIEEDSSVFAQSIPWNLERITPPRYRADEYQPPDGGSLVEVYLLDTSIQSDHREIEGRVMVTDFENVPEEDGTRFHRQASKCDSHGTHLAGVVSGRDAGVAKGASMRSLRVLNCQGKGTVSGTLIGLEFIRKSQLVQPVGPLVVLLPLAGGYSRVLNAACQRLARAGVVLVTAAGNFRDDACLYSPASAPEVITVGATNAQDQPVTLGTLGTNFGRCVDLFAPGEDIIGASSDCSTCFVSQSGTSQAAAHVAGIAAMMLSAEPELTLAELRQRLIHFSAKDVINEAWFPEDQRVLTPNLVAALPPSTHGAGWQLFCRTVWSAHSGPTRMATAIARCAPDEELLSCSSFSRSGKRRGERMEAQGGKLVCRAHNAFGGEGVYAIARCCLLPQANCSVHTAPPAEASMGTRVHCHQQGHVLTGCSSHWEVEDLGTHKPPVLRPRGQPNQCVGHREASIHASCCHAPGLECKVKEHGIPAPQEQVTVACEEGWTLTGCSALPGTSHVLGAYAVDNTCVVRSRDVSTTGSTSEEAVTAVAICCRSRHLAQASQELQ

Kd [1]: 0.0677 nM | koff [1]: 0.000154 s⁻¹ | kon [1]: 2.27e+06 M⁻¹ s⁻¹
B1: Alirocumab (antibody, V domains shown)
VH: EVQLVESGGGLVQPGGSLRLSCAASGFTFNNYAMNWVRQAPGKGLDWVSTISGSGGTTNYADSVKGRFIISRDSSKHTLYLQMNSLRAEDTAVYYCAKDSNWGNFDLWGRGTLVTVSS
VL: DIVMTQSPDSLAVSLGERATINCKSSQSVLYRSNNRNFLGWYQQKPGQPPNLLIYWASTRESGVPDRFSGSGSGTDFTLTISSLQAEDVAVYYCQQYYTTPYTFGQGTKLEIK

binding result [2]: binds
B2: S2B8 (scFv)
scFv: QVQLVESGGGLVKPGGSLRLSCAVSGFTFSRHSMNWVRQAPGKGLEWVSSISSGSSNIYYADSVKGRFTISRDNAKNSLYLQMNSLRDEDTAVYYCARGGLGPEYLQHWGQGTLVTVSSGGGGSGGGGSGGGGSSSELTQPASVSGSPGQSITISCTGTSSDIGDNNFVSWYQQYPGKAPKLMIYDVSNRPSGVSNRFSGSKSGNTASLTISGLQAEDEADYYCSSYTSSSTLVFGGGTKVTVLG
notes: also called 克隆S2B8

binding result [2]: binds
B3: S2F5 (scFv)
scFv: QVQLVQSGAEVKKPGSSVKVSCKASGGTFTGYSIHWVRQAPGQGLEWMGWINPISGSANYAQKFQGRVTITADKSTSTAYMELSSLRSEDTAVYYCARTQNNTGYRGTDYWGQGTLVTVSSGGGGSGGGGSGGGSDIQMTQSPSSLSASVGDRVTITCRASQSVSSYLNWYQQKPGKAPKLLIYGASTRPSGVPSRFSGSGSGTDFTLTISSLQPEDFATYYCQQHADTPTTFGQGTKVEIK
notes: also called 克隆S2F5

binding result [2]: binds
B4: S2G1 (scFv)
scFv: QMQLVQSGAEVKKPGSSVKVSCKTSGGTFGSSAIHWVRQAPRQGLEWMGRINPVLGTTNYTQKFHDRLTITADESTTTAYMELRSLRSDDTAVYYCAREGIPMIWGQGTMVTVSSGGGGSGGGGSGGGGSDIQMTQSPSSLSASVGDRVTITCRASQGIHNWLNWYQQKPGKAPKLLIYAASNRASGVPSRFSGSGSGTDFTLTISSLQPEDFATYYCQQSGKQPVTFGQGTKVEIK
notes: also called 克隆S2G1

Kd [1]: 0.0659 nM | koff [1]: 4.7e-05 s⁻¹ | kon [1]: 714000 M⁻¹ s⁻¹
B5: H4H4-IgG4 (antibody, V domains shown)
VH: QVQLVQSGAEVKKPGASVKVSCKASGYAIYNYGISWVRQAPGQGLEWMGWVSFYNGNTNYAQKLQGRGTMTTDPSTSTAYMELRSLRSDDTAVYYCARGYVMDIWGQGTTVTVSS
VL: DIQMTQSPSSLSASVGDRVTITCRASQSINNWLDWYQQKPGKAPKLLIYAASTRPSGVPSRFSGSGSGTDFTLTISSLQPEDFATYYCQQDQDIPPTFGQGTKVEIKR

Kd [1]: 0.0648 nM | koff [1]: 4.83e-05 s⁻¹ | kon [1]: 746000 M⁻¹ s⁻¹
B6: H8A7-IgG4 (antibody, V domains shown)
VH: B5 VH with I104F
VL: B5 VL

Kd [1]: 0.0675 nM | koff [1]: 4.48e-05 s⁻¹ | kon [1]: 663000 M⁻¹ s⁻¹
B7: H8F4-IgG4 (antibody, V domains shown)
VH: B5 VH with I29L
VL: B5 VL

Kd [1]: 0.0323 nM | koff [1]: 3.26e-05 s⁻¹ | kon [1]: 1.01e+06 M⁻¹ s⁻¹
B8: H7B12-IgG4 (antibody, V domains shown)
VH: B5 VH with A28T, I29L, Y30N
VL: B5 VL

binding result [2]: binds
B9: S3A12 (scFv)
scFv: QVQLVQSGAEVKKPGASVKVSCKASGYAIYNYGISWVRQAPGQGLEWMGWVSYFGGSTTYAQKLQGRGTMTTDPSTSTAYMELRSLRSDDTAVYYCAKGYGMEIWGQGTTVSSGGGGSGGGGSGGGGSDIQMTQSPSSLSASVGDRVTITCRASQNVNNWLDWYQQKPGKAPKLLIYAASTRASGVPSRFSGSGSGTDFTLTISSLQPEDFATYYCQQDRDVPVTFGQGTKVEIK
notes: also called 克隆S3A12
